In patent US20040058857A1, “Method of treating cancer” (priority 2003, published 2004):
Numbered stars: 1 amine (or outer) side, 2 acyl side, 3 side chain; on linkers, the order of the positions; unused ones are H or OH. Square brackets hold non-standard residues; d marks the D form. Peptide text beside a SMILES is read from it. * marks the point of attachment. X1 = COc1cccc2c1C(=O)c1c(O)c3c(c(O)c1C2=O)C[C@@](O)(C(=O)CO)C[C@@H]3OC1CC(N*)C(O)C(C)O1; Glutaryl = O=C(CCCC(=O)[*:2])[*:1]; Hyp = O=C(O)[C@@H]1C[C@@H](O)CN1; Chg = N[C@H](C(=O)O)C1CCCCC1

Columns and labels:
clinical = settings: male, human, in vivo, 225 mg/m2
Protocol: (§1) Compound B (as described in Example 2) is a peptide conjugate of doxorubicin (Dox) that is cleaved by PSA at prostate tumor cells to leucine-dox (Leu-dox) and Dox. Thirty-three patients with advanced hormone refractory prostate cancer were treated with Compound B. Nineteen patients were initially treated at escalating dose levels of 20 (n=1), 40 (n=3), 80 (n=4), 160 (n=2), 225 (n=6), and 315 mg/m^2 (n=2) in the phase I portion of the trial. An additional 14 patients were treated with 225 mg/m^2 with prednisone.

[1] = human, in vivo
Protocol: as §1

[2] = Clinical trial of Compound B: tolerability and dose limiting toxicity
Protocol: as §1

[3] = human, in vivo; remark: listed apart in the source
Protocol: as §1

Row | Compound | AUC (clinical) [µM·h] | patients experiencing grade 3 fatigue [1] | patients with dose limiting neutropenia ([2]; 315 mg/m^2 dose level) [patients] | tolerability ([2]; 33 patients with advanced hormone refractory prostate cancer) | recommended phase II dose ([2]; phase I dose escalation 20-315 mg/m^2) [mg/m^2] | metabolism in PK studies [3] | mean AUC ([3]; 225 mg/m2) [µM·h]
1 | COc1cccc2c1C(=O)c1c(O)c3c(c(O)c1C2=O)C[C@@](O)(C(=O)CO)C[C@@H]3OC1CC(NC(=O)[C@H](CC(C)C)NC(=O)[C@H](CO)NC(=O)[C@H](CCC(N)=O)NC(=O)[C@@H](NC(=O)[C@H](CO)NC(=O)[C@H](C)NC(=O)[C@@H]2C[C@@H](O)CN2C(=O)CCCC(=O)O)C2CCCCC2)C(O)C(C)O1 (stereo partly drawn) [Compound B, [N-Glutaryl-(4-trans-L-Hyp)]-Ala-Ser-Chg-Gln-Ser-Leu-Dox] (Glutaryl-[Hyp]AS[Chg]QSL-X1; N-terminus and C-terminus assumed) | 6 | two | 2 | generally well tolerated | 225 | metabolized to Leu-dox and Dox | 
2 | COc1cccc2c1C(=O)c1c(O)c3c(c(O)c1C2=O)C[C@@](O)(C(=O)CO)C[C@@H]3O[C@H]1C[C@H](NC(=O)[C@@H](N)CC(C)C)[C@H](O)[C@H](C)O1 [Leu-Dox, leucine-dox] |  |  |  |  |  |  | 4
